Target: human IgE (human) (UniProt P01854)
Assay: Biacore, human IgE on CM5 chip, sample protein in flow

Sequence of human IgE (human) (P01854 other isoform, or with tags, fused parts or gaps): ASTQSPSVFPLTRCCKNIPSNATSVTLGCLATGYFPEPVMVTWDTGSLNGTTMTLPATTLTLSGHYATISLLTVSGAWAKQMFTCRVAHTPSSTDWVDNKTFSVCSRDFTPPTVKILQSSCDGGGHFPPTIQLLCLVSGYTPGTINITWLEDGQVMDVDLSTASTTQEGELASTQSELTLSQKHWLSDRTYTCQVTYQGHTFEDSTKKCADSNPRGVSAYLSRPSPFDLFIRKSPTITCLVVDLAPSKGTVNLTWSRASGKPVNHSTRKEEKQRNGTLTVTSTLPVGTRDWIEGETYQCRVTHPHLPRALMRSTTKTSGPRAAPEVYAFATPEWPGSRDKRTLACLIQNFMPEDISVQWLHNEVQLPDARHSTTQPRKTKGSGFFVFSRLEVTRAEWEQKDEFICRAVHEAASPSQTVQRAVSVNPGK

Kd: 450 nM
Substance: recombinant human FcERI protein (from UniProt P12319 26-205) (receptor)
